Test results from patent publication US20150299281A1 (ZEALAND PHARMA A S, published 2015).
Numbered stars: 1 amine (or outer) side, 2 acyl side, 3 side chain; on linkers, the order of the positions; unused ones are H or OH. Square brackets hold non-standard residues; d marks the D form. Side chains are listed from the residue outwards. * marks the point of attachment. γGlu = O=C(O)[C@H](CCC(=O)[*:2])N[*:1]; Palmitoyl = CCCCCCCCCCCCCCCC(=O)*; pGlu = O=C1CC[C@@H](C(=O)O)N1; Aib = CC(C)(N)C(=O)O

Tests used:
human GIP receptor = target: T1, human GIP receptor (human, UniProt P48546 22-466); experiment: cell-based or functional assay
T1 sequence (looked up): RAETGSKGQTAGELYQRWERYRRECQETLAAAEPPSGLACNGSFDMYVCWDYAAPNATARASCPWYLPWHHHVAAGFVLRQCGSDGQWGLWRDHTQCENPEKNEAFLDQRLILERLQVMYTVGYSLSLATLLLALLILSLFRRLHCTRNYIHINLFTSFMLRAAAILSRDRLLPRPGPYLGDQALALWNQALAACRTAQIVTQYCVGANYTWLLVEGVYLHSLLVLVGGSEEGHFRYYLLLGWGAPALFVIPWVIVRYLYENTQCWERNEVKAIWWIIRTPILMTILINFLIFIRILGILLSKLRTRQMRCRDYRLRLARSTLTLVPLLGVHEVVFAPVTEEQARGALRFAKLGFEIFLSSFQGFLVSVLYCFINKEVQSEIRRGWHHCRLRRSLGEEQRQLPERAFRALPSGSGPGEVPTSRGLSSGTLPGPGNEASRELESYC

human GLP-1 receptor = human GLP-1 receptor (human, UniProt P43220 24-463); experiment: cell-based or functional assay

B1: Compound 52 (peptide)
peptide: H-Y[Aib]EGTFTSDYSIYLDEK([γGlu-Palmitoyl])AAKDFVEWLLSA-NH2
SMILES: CCCCCCCCCCCCCCCC(=O)N[C@@H](CCC(=O)NCCCC[C@H](NC(=O)[C@H](CCC(=O)O)NC(=O)[C@H](CC(=O)O)NC(=O)[C@H](CC(C)C)NC(=O)[C@H](Cc1ccc(O)cc1)NC(=O)[C@@H](NC(=O)[C@H](CO)NC(=O)[C@H](Cc1ccc(O)cc1)NC(=O)[C@H](CC(=O)O)NC(=O)[C@H](CO)NC(=O)[C@@H](NC(=O)[C@H](Cc1ccccc1)NC(=O)[C@@H](NC(=O)CNC(=O)[C@H](CCC(=O)O)NC(=O)C(C)(C)NC(=O)[C@@H](N)Cc1ccc(O)cc1)[C@@H](C)O)[C@@H](C)O)[C@@H](C)CC)C(=O)N[C@@H](C)C(=O)N[C@@H](C)C(=O)N[C@@H](CCCCN)C(=O)N[C@@H](CC(=O)O)C(=O)N[C@@H](Cc1ccccc1)C(=O)N[C@H](C(=O)N[C@@H](CCC(=O)O)C(=O)N[C@@H](Cc1c[nH]c2ccccc12)C(=O)N[C@@H](CC(C)C)C(=O)N[C@@H](CC(C)C)C(=O)N[C@@H](CO)C(=O)N[C@@H](C)C(N)=O)C(C)C)C(=O)O
Human GIP receptor
  EC50, cAMP induction in HEK293 cells expressing human GIP R: 87 pM
Human GLP-1 receptor
  EC50, cAMP induction in HEK293 cells expressing human GLP-1 R: 180 pM

B2: Compound 55 (peptide)
peptide: H-Y[Aib]EGTFTSDYSIYLDSKAAHDFVEWLLSAGPSSGAPPPS-NH2
SMILES: CC[C@H](C)[C@H](NC(=O)[C@H](CO)NC(=O)[C@H](Cc1ccc(O)cc1)NC(=O)[C@H](CC(=O)O)NC(=O)[C@H](CO)NC(=O)[C@@H](NC(=O)[C@H](Cc1ccccc1)NC(=O)[C@@H](NC(=O)CNC(=O)[C@H](CCC(=O)O)NC(=O)C(C)(C)NC(=O)[C@@H](N)Cc1ccc(O)cc1)[C@@H](C)O)[C@@H](C)O)C(=O)N[C@@H](Cc1ccc(O)cc1)C(=O)N[C@@H](CC(C)C)C(=O)N[C@@H](CC(=O)O)C(=O)N[C@@H](CO)C(=O)N[C@@H](CCCCN)C(=O)N[C@@H](C)C(=O)N[C@@H](C)C(=O)N[C@@H](Cc1c[nH]cn1)C(=O)N[C@@H](CC(=O)O)C(=O)N[C@@H](Cc1ccccc1)C(=O)N[C@H](C(=O)N[C@@H](CCC(=O)O)C(=O)N[C@@H](Cc1c[nH]c2ccccc12)C(=O)N[C@@H](CC(C)C)C(=O)N[C@@H](CC(C)C)C(=O)N[C@@H](CO)C(=O)N[C@@H](C)C(=O)NCC(=O)N1CCC[C@H]1C(=O)N[C@@H](CO)C(=O)N[C@@H](CO)C(=O)NCC(=O)N[C@@H](C)C(=O)N1CCC[C@H]1C(=O)N1CCC[C@H]1C(=O)N1CCC[C@H]1C(=O)N[C@@H](CO)C(N)=O)C(C)C
Human GIP receptor
  EC50, cAMP induction in HEK293 cells expressing human GIP R: 7.1 pM
Human GLP-1 receptor
  EC50, cAMP induction in HEK293 cells expressing human GLP-1 R: 8.7 pM

B3: Compound 54 (peptide)
peptide: H-Y[Aib]EGTFTSDYSIYLEKK([γGlu-Palmitoyl])AAKEFVEWLLSAGPSSGAPPPS-NH2
SMILES: CCCCCCCCCCCCCCCC(=O)N[C@@H](CCC(=O)NCCCC[C@H](NC(=O)[C@H](CCCCN)NC(=O)[C@H](CCC(=O)O)NC(=O)[C@H](CC(C)C)NC(=O)[C@H](Cc1ccc(O)cc1)NC(=O)[C@@H](NC(=O)[C@H](CO)NC(=O)[C@H](Cc1ccc(O)cc1)NC(=O)[C@H](CC(=O)O)NC(=O)[C@H](CO)NC(=O)[C@@H](NC(=O)[C@H](Cc1ccccc1)NC(=O)[C@@H](NC(=O)CNC(=O)[C@H](CCC(=O)O)NC(=O)C(C)(C)NC(=O)[C@@H](N)Cc1ccc(O)cc1)[C@@H](C)O)[C@@H](C)O)[C@@H](C)CC)C(=O)N[C@@H](C)C(=O)N[C@@H](C)C(=O)N[C@@H](CCCCN)C(=O)N[C@@H](CCC(=O)O)C(=O)N[C@@H](Cc1ccccc1)C(=O)N[C@H](C(=O)N[C@@H](CCC(=O)O)C(=O)N[C@@H](Cc1c[nH]c2ccccc12)C(=O)N[C@@H](CC(C)C)C(=O)N[C@@H](CC(C)C)C(=O)N[C@@H](CO)C(=O)N[C@@H](C)C(=O)NCC(=O)N1CCC[C@H]1C(=O)N[C@@H](CO)C(=O)N[C@@H](CO)C(=O)NCC(=O)N[C@@H](C)C(=O)N1CCC[C@H]1C(=O)N1CCC[C@H]1C(=O)N1CCC[C@H]1C(=O)N[C@@H](CO)C(N)=O)C(C)C)C(=O)O
Human GIP receptor
  EC50, cAMP induction in HEK293 cells expressing human GIP R: 37 pM
Human GLP-1 receptor
  EC50, cAMP induction in HEK293 cells expressing human GLP-1 R: 33 pM

B4: Compound 6 (peptide)
peptide: [pGlu]YAEGTFTSDYSIYLDKKAQRAFVNWLLA[Aib]K-NH2
SMILES: CC[C@H](C)[C@H](NC(=O)[C@H](CO)NC(=O)[C@H](Cc1ccc(O)cc1)NC(=O)[C@H](CC(=O)O)NC(=O)[C@H](CO)NC(=O)[C@@H](NC(=O)[C@H](Cc1ccccc1)NC(=O)[C@@H](NC(=O)CNC(=O)[C@H](CCC(=O)O)NC(=O)[C@H](C)NC(=O)[C@H](Cc1ccc(O)cc1)NC(=O)[C@@H]1CCC(=O)N1)[C@@H](C)O)[C@@H](C)O)C(=O)N[C@@H](Cc1ccc(O)cc1)C(=O)N[C@@H](CC(C)C)C(=O)N[C@@H](CC(=O)O)C(=O)N[C@@H](CCCCN)C(=O)N[C@@H](CCCCN)C(=O)N[C@@H](C)C(=O)N[C@@H](CCC(N)=O)C(=O)N[C@@H](CCCNC(=N)N)C(=O)N[C@@H](C)C(=O)N[C@@H](Cc1ccccc1)C(=O)N[C@H](C(=O)N[C@@H](CC(N)=O)C(=O)N[C@@H](Cc1c[nH]c2ccccc12)C(=O)N[C@@H](CC(C)C)C(=O)N[C@@H](CC(C)C)C(=O)N[C@@H](C)C(=O)NC(C)(C)C(=O)N[C@@H](CCCCN)C(N)=O)C(C)C
Human GIP receptor
  EC50, cAMP induction in HEK293 cells expressing human GIP R: 270 pM
Human GLP-1 receptor
  EC50, cAMP induction in HEK293 cells expressing human GLP-1 R: 970 pM

B5: Compound 53 (peptide)
peptide: H-Y[Aib]EGTFTSDYSIYLDSK([γGlu-Palmitoyl])AAHDFVEWLLSAGPSSGAPPPS-NH2
SMILES: CCCCCCCCCCCCCCCC(=O)N[C@@H](CCC(=O)NCCCC[C@H](NC(=O)[C@H](CO)NC(=O)[C@H](CC(=O)O)NC(=O)[C@H](CC(C)C)NC(=O)[C@H](Cc1ccc(O)cc1)NC(=O)[C@@H](NC(=O)[C@H](CO)NC(=O)[C@H](Cc1ccc(O)cc1)NC(=O)[C@H](CC(=O)O)NC(=O)[C@H](CO)NC(=O)[C@@H](NC(=O)[C@H](Cc1ccccc1)NC(=O)[C@@H](NC(=O)CNC(=O)[C@H](CCC(=O)O)NC(=O)C(C)(C)NC(=O)[C@@H](N)Cc1ccc(O)cc1)[C@@H](C)O)[C@@H](C)O)[C@@H](C)CC)C(=O)N[C@@H](C)C(=O)N[C@@H](C)C(=O)N[C@@H](Cc1c[nH]cn1)C(=O)N[C@@H](CC(=O)O)C(=O)N[C@@H](Cc1ccccc1)C(=O)N[C@H](C(=O)N[C@@H](CCC(=O)O)C(=O)N[C@@H](Cc1c[nH]c2ccccc12)C(=O)N[C@@H](CC(C)C)C(=O)N[C@@H](CC(C)C)C(=O)N[C@@H](CO)C(=O)N[C@@H](C)C(=O)NCC(=O)N1CCC[C@H]1C(=O)N[C@@H](CO)C(=O)N[C@@H](CO)C(=O)NCC(=O)N[C@@H](C)C(=O)N1CCC[C@H]1C(=O)N1CCC[C@H]1C(=O)N1CCC[C@H]1C(=O)N[C@@H](CO)C(N)=O)C(C)C)C(=O)O
Human GIP receptor
  EC50, cAMP induction in HEK293 cells expressing human GIP R: 62 pM
Human GLP-1 receptor
  EC50, cAMP induction in HEK293 cells expressing human GLP-1 R: 92 pM

B6: Compound 7 (peptide)
peptide: H-YGEGTFTSDYSIYLDKKAQRAFVNWLLA[Aib]K-NH2
SMILES: CC[C@H](C)[C@H](NC(=O)[C@H](CO)NC(=O)[C@H](Cc1ccc(O)cc1)NC(=O)[C@H](CC(=O)O)NC(=O)[C@H](CO)NC(=O)[C@@H](NC(=O)[C@H](Cc1ccccc1)NC(=O)[C@@H](NC(=O)CNC(=O)[C@H](CCC(=O)O)NC(=O)CNC(=O)[C@@H](N)Cc1ccc(O)cc1)[C@@H](C)O)[C@@H](C)O)C(=O)N[C@@H](Cc1ccc(O)cc1)C(=O)N[C@@H](CC(C)C)C(=O)N[C@@H](CC(=O)O)C(=O)N[C@@H](CCCCN)C(=O)N[C@@H](CCCCN)C(=O)N[C@@H](C)C(=O)N[C@@H](CCC(N)=O)C(=O)N[C@@H](CCCNC(=N)N)C(=O)N[C@@H](C)C(=O)N[C@@H](Cc1ccccc1)C(=O)N[C@H](C(=O)N[C@@H](CC(N)=O)C(=O)N[C@@H](Cc1c[nH]c2ccccc12)C(=O)N[C@@H](CC(C)C)C(=O)N[C@@H](CC(C)C)C(=O)N[C@@H](C)C(=O)NC(C)(C)C(=O)N[C@@H](CCCCN)C(N)=O)C(C)C
Human GIP receptor
  EC50, cAMP induction in HEK293 cells expressing human GIP R: 210 pM
Human GLP-1 receptor
  EC50, cAMP induction in HEK293 cells expressing human GLP-1 R: 24 pM

B7: Compound 5 (peptide)
peptide: H-Y[Aib]EGTFTSDYSIYLDKKAQRAFVNWLLA[Aib]K-NH2
SMILES: CC[C@H](C)[C@H](NC(=O)[C@H](CO)NC(=O)[C@H](Cc1ccc(O)cc1)NC(=O)[C@H](CC(=O)O)NC(=O)[C@H](CO)NC(=O)[C@@H](NC(=O)[C@H](Cc1ccccc1)NC(=O)[C@@H](NC(=O)CNC(=O)[C@H](CCC(=O)O)NC(=O)C(C)(C)NC(=O)[C@@H](N)Cc1ccc(O)cc1)[C@@H](C)O)[C@@H](C)O)C(=O)N[C@@H](Cc1ccc(O)cc1)C(=O)N[C@@H](CC(C)C)C(=O)N[C@@H](CC(=O)O)C(=O)N[C@@H](CCCCN)C(=O)N[C@@H](CCCCN)C(=O)N[C@@H](C)C(=O)N[C@@H](CCC(N)=O)C(=O)N[C@@H](CCCNC(=N)N)C(=O)N[C@@H](C)C(=O)N[C@@H](Cc1ccccc1)C(=O)N[C@H](C(=O)N[C@@H](CC(N)=O)C(=O)N[C@@H](Cc1c[nH]c2ccccc12)C(=O)N[C@@H](CC(C)C)C(=O)N[C@@H](CC(C)C)C(=O)N[C@@H](C)C(=O)NC(C)(C)C(=O)N[C@@H](CCCCN)C(N)=O)C(C)C
Human GIP receptor
  EC50, cAMP induction in HEK293 cells expressing human GIP R: 31 pM
Human GLP-1 receptor
  EC50, cAMP induction in HEK293 cells expressing human GLP-1 R: 23 pM

## YAEGTFTSDYSIALDKKAQRAFVNWLVAAKPSSGAPPPS (Aib at 2 and 29; K(hexadecanoyl-isoGlu) at 17; C-terminal amide) [Compound 36]
Human GLP-1 receptor
  EC50, cAMP induction in HEK293 cells expressing human GLP-1 R: 15 pM
